The results in this text go back to paper PMC5261807 (2017).

Experiment [1] has as its target T1, Bdf1 bromodomain 2 (GST-tagged, WT) (Saccharomyces cerevisiae (strain ATCC …, UniProt P35817)).
T1 chain: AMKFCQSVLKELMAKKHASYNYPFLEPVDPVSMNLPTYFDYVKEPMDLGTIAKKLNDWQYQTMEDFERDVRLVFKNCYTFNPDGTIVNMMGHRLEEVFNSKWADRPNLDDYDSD
Briefly: histone peptide array probed with recombinant GST-bromodomain, signal normalised to myc peptide control.

For experiment [2], the target named is T2, Bdf1 bromodomain 1 (GST-tagged, WT) (Saccharomyces cerevisiae (strain ATCC …, UniProt P35817)).
T2 chain: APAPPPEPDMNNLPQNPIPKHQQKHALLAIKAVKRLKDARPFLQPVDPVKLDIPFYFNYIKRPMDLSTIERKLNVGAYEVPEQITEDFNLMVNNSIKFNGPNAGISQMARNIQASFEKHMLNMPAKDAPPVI
Described as above.

Non-standard residues stand in square brackets, D forms with d. No end group written: not given here. Arg(Me2a) = CN(C)C(=N)NCCC[C@H](N)C(=O)O; Lys(Me3) = C[N+](C)(C)CCCC[C@H](N)C(=O)O; Arg(Me2s) = CN=C(NC)NCCC[C@H](N)C(=O)O; pT = C[C@@H](OP(=O)(O)O)[C@H](N)C(=O)O; Lys(Me2) = CN(C)CCCC[C@H](N)C(=O)O; pS = N[C@@H](COP(=O)(O)O)C(=O)O; Lys(Me) = CNCCCC[C@H](N)C(=O)O

On to ARTKQTARKSTGGKAPRKQ (A Rme2s T Kme1 Q T A R Kme3 S T G G K A P R K Q), for which the binding score in experiment [1] amounted to 0.000295; in experiment [2], 0.
For ARTKQTARKSTGGKAPRKQ (A R T Kme1 Q T A Rme2a Kme3 S T G G K A P R K Q), in that order: 0 and 0.00179.
In the case of ARTKQTA[Arg(Me2a)]K(Ac)S[pT]GGKAPRKQ, the results for the binding score in experiment [1] and in experiment [2] were 0 and 0.0043, respectively.
For SGRGKGGKGLGKGGAKRHR (S G Rme2s G Kac G G K G L G K G G A K R H R), in that order: 0.0652 and 0.
In the same order, the values of SGRGKGGKGLGKGGAKRHR (pS G Rme2a G Kac G G K G L G K G G A K R H R) are 0.0674 and 0.00753.
PDPAK(Ac)SAPAPKK(Ac)G[pS]KKAVT: the binding score in experiment [1] turned out to be 0; in experiment [2] it was 0.00663.
In the same order, the values of SGRGKGGKGLGKGGAKRHR (pS G Rme2a G K G G K G L G K G G A K R H R) are 0 and 0.
For the molecule PRKQLATKAA[Arg(Me2s)][Lys(Me3)]SAPATGG, the binding score is 0 in experiment [1] and 5.8e-17 in experiment [2].
For ARTKQTARKSTGGKAPRKQ (A Rme2a T Kme1 Q T A Rme2a Kme1 S T G G K A P R K Q), in that order: 0 and 0.
In the same order, the values of ARTKQTARKSTGGKAPRKQ (A Rme2s pT Kme3 Q T A R K S T G G K A P R K Q) are 0.00895 and 0.00538.
As for ARTKQTARKSTGGKAPRKQ (A Rme2s T Kme3 Q T A Rme2s K S T G G K A P R K Q), the binding score in experiment [1] was determined as 0; in experiment [2], 0.00861.
In the same order, the values of ARTKQTARKSTGGKAPRKQ (A R T Kme1 Q T A Rme2a Kme1 S T G G K A P R K Q) are 0 and 0.0154.
Regarding ARTKQTARKSTGGKAPRKQ (A R T K Q T A Rme2s Kme3 S pT G G K A P R K Q), the values for the binding score in experiment [1] and in experiment [2] were 0.00561 and 0, respectively.
In the same order, the values of A[Arg(Me2a)]T[Lys(Me2)]QTARKSTGGKAPRKQ are 0 and 0.00161.
For the molecule ARTKQTARKSTGGKAPRKQ (A Rme2s T Kme1 Q T A Rme2a Kac S T G G K A P R K Q), the binding score was found to be 0.00462 in experiment [1] and 0.00628 in experiment [2].
Take PDPAKSAPAPKKG[pS]K(Ac)KAVT: the binding score in experiment [1] is 0.142; in experiment [2], 0.0142.
In the same order, the values of ARTKQTARKSTGGKAPRKQ (A Rme2a T Kme1 Q T A Rme2a K S T G G K A P R K Q) are 0.00443 and 0.00341.
ARTKQTARKSTGGKAPRKQ (A Rme2a T Kme2 Q T A Rme2s Kme1 S T G G K A P R K Q): the binding score is 0 in experiment [1] and 0.0163 in experiment [2].
For A[Arg(Me2s)]TK(Ac)QTA[Arg(Me2a)][Lys(Me3)]STGGKAPRKQ, in that order: 0.00836 and 0.0145.
In the case of SGRGK(Ac)QGGK(Ac)ARAKAKSRSS, the binding score in experiment [1] came out at 0.141; in experiment [2] it was 0.0332.
In the same order, the values of ARTKQTARKSTGGKAPRKQ (A Rme2s T Kme2 Q T A Rme2a Kac S T G G K A P R K Q) are 0.0107 and 0.0108.
Take ARTKQTARKSTGGKAPRKQ (A R T Kac Q T A Rme2a Kme3 S T G G K A P R K Q): the results for the binding score in experiment [1] and in experiment [2] were 0 and 0.0328, respectively.
In the same order, the values of ARTKQTARKSTGGKAPRKQ (A R T Kme3 Q T A Rme2a Kac S T G G K A P R K Q) are 0.0127 and 0.0142.
In the same order, the values of PRKQLATKAA[Arg(Me2a)]K(Ac)SAPATGG are 0.0393 and 0.
In the case of [pS]GRGKQGGKARAK(Ac)AKSRSS, the binding score in experiment [1] came to 0.0125; in experiment [2] it was 0.00484.
In the same order, the values of ARTKQTARKSTGGKAPRKQ (A R T Kme2 Q T A Rme2a Kme3 S T G G K A P R K Q) are 0 and 0.
In the same order, the values of ARTKQTARKSTGGKAPRKQ (A R T K Q T A R Kac pS T G G K A P R K Q) are 0 and 0.
As for PRKQLATKAA[Arg(Me2s)]K(Ac)SAPATGG, the results for the binding score in experiment [1] and in experiment [2] were 0.081 and 0.00843, respectively.
In the same order, the values of ARTKQTARKSTGGKAPRKQ (A R T Kme1 Q T A Rme2a Kme2 S T G G K A P R K Q) are 0.00738 and 0.00699.
Consider A[Arg(Me2a)]T[Lys(Me)]QTA[Arg(Me2s)][Lys(Me2)]STGGKAPRKQ, for which the binding score in experiment [1] stood at 0; in experiment [2], 0.00448.
For PRKQLATKAARK(Ac)[pS]APATGG, in that order: 0 and 0.
For ARTKQTARKSTGGKAPRKQ (A Rme2s T Kac Q T A R Kme3 S T G G K A P R K Q), in that order: 0 and 0.00412.
PRKQLATKAA[Arg(Me2s)][Lys(Me)]SAPATGG: the binding score in experiment [1] and in experiment [2] was 0 in each case.
ARTKQTARKSTGGKAPRKQ (A Rme2a T Kac Q T A R Kme2 S T G G K A P R K Q): the binding score in experiment [1] stood at 0.00915; in experiment [2], 0.0255.
In the same order, the values of ART[Lys(Me2)]QTA[Arg(Me2a)][Lys(Me)]STGGKAPRKQ are 0 and 0.000717.
In the same order, the values of ARTKQTARKSTGGKAPRKQ (A Rme2a T Kme3 Q T A Rme2a K S T G G K A P R K Q) are 0.00541 and 0.0102.
In the same order, the values of [pS]GRGKQGGK(Ac)ARAKAKSRSS are 0.00817 and 0.
For ARTKQTARKSTGGKAPRKQ (A R T K Q T A R Kme2 S T G G K A P R K Q), the binding score was 0.00679 in experiment [1] and 0.00269 in experiment [2].
In the same order, the values of PRKQLATKAA[Arg(Me2s)]K(Ac)[pS]APATGG are 0 and 0.0061.
For ARTKQTARKSTGGKAPRKQ (A Rme2a T Kme3 Q T A Rme2a Kme2 S T G G K A P R K Q), in that order: 0 and 0.
For PDPAKSAPAPKKGSK(Ac)KAVT, in that order: 0 and 0.00825.
Take SGRGK(Ac)QGGKARAKAKSRSS: the binding score in experiment [1] stood at 0.0459; in experiment [2], 0.
In the same order, the values of ARTKQTARKSTGGKAPRKQ (A Rme2s T Kme1 Q T A Rme2s Kme1 S T G G K A P R K Q) are 0.00443 and 0.0134.
For ARTKQTARKSTGGKAPRKQ (A Rme2s T Kme3 Q T A Rme2a Kme3 S T G G K A P R K Q), in that order: 0.00108 and 0.00681.
For PDPAK(Ac)SAPAPKKGSKKAVT, in that order: 0 and 0.00502.
